Data reported in patent publication US20210388108A1 (GLYCARDIAL DIAGNOSTICS S L, published 2021).
No end group written: not given here. *: point of attachment. Biotin = O=C1N[C@H]2[C@H](CS[C@H]2CCCCC(=O)*)N1; GlcNAc = N-acetylglucosamine

Tests used:
[1] = biological target: T1, Ag4G (Bio-EEFLN(GlcNAc)QSSP); test: QC ELISA of the IgG on its target peptide
T1 peptide: Biotin-EEFLN(GlcNAc)QSSP

[2] = biological target: T2, Ag1G (Bio-REIRHN(GlcNAc)STGC); test: QC ELISA of the IgG on its target peptide
T2 peptide: Biotin-REIRHN(GlcNAc)STGC

B1: Ag4G-6 (antibody, V domains shown)
VH: QQLEESGGRLVTPGTPLTLTCTASGMDLSKYWMTWVRQAPGKGLEYIGIIETGGSAYYASWAKGRFTISRTSTTVDLKMISPTTEDTATYFCGRWGDIWGPGTLVTVSS
VL: MTQTPASVEVAVGGTVTIKCQASQSINGYLAWYQQKPGQPPKLLIYQASTLASGVSSRFQGSGSGTEYTLTISGVQCDDAATYYCQGDYYGWIRTFGGGTEVVVKR
notes: Rabbit/human chimeric clone from a Fab phage library; tested 'in the form of IgG'; the FWR4 entries as printed run on into human C kappa (light) and human CH1 plus His tag (heavy), i.e. the Fab format; also called Apo J-GlcNAc Ag4G-6
[1]
  binding result: binds

B2: Ag1G-11 (antibody, V domains shown)
VH: QSLEESGGRLVTPGGSLTLTCTVSGFSLSSYAMSWVRQAPGKGLEWIGIIGVNGDTYYASWAKGRFTISKTSTTVGLKITSPTTEDTATYFCARVRYPYYDTDAFDPWGPGTLVTISS
VL: DPVLTQTPSPVSAAVGGTVTINCQASQSVYNNNELSWYQQKPGQPPKPLIYQASKLASGVPSRFKGSGSGTQFTLTISDLECDDAATYYCQGIYLGSDWYDVFGGGTEVVVKR
notes: Rabbit/human chimeric clone from a Fab phage library; tested 'in the form of IgG'; the FWR4 entries as printed run on into human C kappa (light) and human CH1 plus His tag (heavy), i.e. the Fab format; also called Apo J-GlcNAc Ag1G-11
[2]
  binding result: binds
